Laboratory results: patent publication US7012128B2, “Interaction between cyclin D1 and steroid receptor co-activators and uses thereof in assays” (TopoTarget UK Limited, priority 1998, dated 2006)

B1: D1: amino acids 1-202: carboxyl-terminal deletion mutant of cyclin D1 (protein, UniProt P24385 1-202, looked up, fragment)
chain: MEHQLLCCEVETIRRAYPDANLLNDRVLRAMLKAEETCAPSVSYFKCVQKEVLPSMRKIVATWMLEVCEEQKCEEEVFPLAMNYLDRFLSLEPVKKSRLQLLGATCMFVASKMKETIPLTAEKLCIYTDNSIRPEELLQMELLLVNKLKWNLAAMTPHDFIEHFLSKMPEAEENKQIIRKHAQTFVALCATDVKFISNPPSM
B2: cyclin D2: D-type cyclin lacking the leucine-rich motif (protein, UniProt P30279 1-289, looked up)
G1/S-specific cyclin-D2: MELLCHEVDPVRRAVRDRNLLRDDRVLQNLLTIEERYLPQCSYFKCVQKDIQPYMRRMVATWMLEVCEEQKCEEEVFPLAMNYLDRFLAGVPTPKSHLQLLGAVCMFLASKLKETSPLTAEKLCIYTDNSIKPQELLEWELVVLGKLKWNLAAVTPHDFIEHILRKLPQQREKLSLIRKHAQTFIALCATDFKFAMYPPSMIATGSVGAAICGLQQDEEVSSLTCDALTELLAKITNTDVDCLKACQEQIEAVLLNSLQQYRQDQRDGSKSEDELDQASTPTDVRDIDL
B3: cyclin D3: D-type cyclin lacking the leucine-rich motif (protein, UniProt P30281 1-292, looked up)
G1/S-specific cyclin-D3: MELLCCEGTRHAPRAGPDPRLLGDQRVLQSLLRLEERYVPRASYFQCVQREIKPHMRKMLAYWMLEVCEEQRCEEEVFPLAMNYLDRYLSCVPTRKAQLQLLGAVCMLLASKLRETTPLTIEKLCIYTDHAVSPRQLRDWEVLVLGKLKWDLAAVIAHDFLAFILHRLSLPRDRQALVKKHAQTFLALCATDYTFAMYPPSMIATGSIGAAVQGLGACSMSGDELTELLAGITGTEVDCLRACQEQIEAALRESLREASQTSSSPAPKAPRGSSSQGPSQTSTPTDVTAIHL

Experiments:
wild type ER = test: ERE-TATA-luciferase transactivation of wild type ER in COS-7 cells; type: cell-based; settings: COS-7, wild type ER, presence of ligand
Protocol: FIG. 1. Mapping of the region of cyclin D1 required for ER-mediated transactivation. • (A) The effect of cyclin D1 deletion mutants on ER activation in the presence of ligand. The cyclin D1 derivatives used in this study are shown in the left panel; right side of Figure represents the relative capacity of the mutants to potentiate ERE-dependent transcription. ER-negative COS-7 cells were transfected with expression vectors for wild type ER (200 ng), cyclin D1 or cyclin D1 mutants (2.5 μg), an internal control §-galactosidase plasmid (0.5 μg) and an ERE-TATA-luciferase reporter (3 μg). The effect on ER transactivation of wild type cyclin D1 was set to 100%. These studies were performed in three separate experiments and expressed as mean values with standard deviation less then […]. The alignment of leucine-rich motif of ER with D-type cyclins are shown on the bottom; the leucine-rich motif in cyclin D1 is indicated as a dark box. The identifiers for the sequences shown are as follows: Cyclin D1 (SEQ ID NO:11), Estrogen receptor (SEQ ID NO:12), the Cyclin D2 (SEQ ID NO:13), and the Cyclin D3 (SEQ ID NO:14). • (B) ER activation by D-type cyclins, cyclin D1 L254/255A point mutant (D1-LALA) and SRC-1 in the presence of ligand. COS-7 cells were transfected with D-type cyclin expression vectors, cyclin D1 Leucine-to-Alanine point mutant (D1-LALA) or SRC-1 expression vector together with wild type ER expression vector, an ERE-TATA-luciferase reporter plasmid and the internal control β-galactosidase construct. Data are expressed as relative luciferase activity compared with basal ERE-luciferase activity of wild type ER and are normalized for transfection efficiencies.
FIG. 3. Role of coactivators in cyclin D1—induced transactivation. • (A) Effect of a dominant negative form of SRC-1 (SRC1-DN) on ER transactivation. SRC1-DN encoding amino acids 1245-1441 of SRC-1 (1, 2.5 and 5 μg) was introduced by transient transfection together with wild type ER (200 ng) and was tested for its ability to modulate ERE-dependent transcription. • (B) Effect of SRCI-DN on SRC-1 and TIF 2 mediated ER transactivation. SRC-1 (3 μg) or TIF-2 (3 μg) were transfected with SRC1-DN (3 μg) and tested for ER transactivation. • (C) Effect of SRC1-DN on cyclin D1-induced transactivation of ER 1-535 mutant. Cyclin D1 was cotransfected with SRC1-DN (1, 2.5, 5 μg) and tested for its effect on an ER harboring a deletion of coactivator binding site in helix 12 (ER 1-535). • (D) Effect of SRC1-DN on cyclin D1-induced transactivation of ER L543/544A mutant. Cyclin D1 and SRC1-DN (1, 2.5, 5 gg) were transfected and tested for the activity of ER helix 12 point mutant (ER L543/544A). The transient transfections (A-C) were performed in COS-7 cells, which were maintained in DMEM with 10 nM ligand. The relative activity was calculated by normalizing to the internal control and was divided by luciferase activity of ER (mutant) in the presence of ligand. The transfection for each set of conditions were done at least in four independent experiments and expressed as average ±SD.
To study how cyclin D1 activates ER, cyclin D1 deletion mutants were tested for their effect on ER-transactivation. COS-7 cells were transfected with cyclin D1 mutants, together with ER and a luciferase reporter gene construct driven by a minimal TATA promoter linked to an estrogen response element (ERE). […] This part of the protein is not involved in CDK interaction and is poorly conserved among the different cyclins. […] To test the relevance of this leucine-rich domain of cyclin D1 in ER activation, a cyclin D1 mutant was constructed in which leucines 254 and 255 were mutated to alanines (D1 L254/255A). This mutation in cyclin D1 is similar to the mutation in ER (ER L543/544A) that interferes with coactivator binding to AF-2 (Danielian et al., 1992). […]

[1] = target: T1, GST-SRC1 (361-1441) and His-tagged cyclin D1 (Homo sapiens, UniProt P24385); test: GST pull down peptide competition assay; type: binding; settings: for interference with binding of cyclin D1 to SRC-1: 0.3 μg and 3 μg peptide, Western blot with anti-cyclin D1 antibody
T1 construct: 6X histidine; made in house; host or cells: E. coli
Protocol: To ask whether the LXXLL (SEQ ID NO:6) motifs of SRC-1 are involved in cyclin D1 binding, a peptide competition experiment was performed. Peptides (0.3 μg and 3 μg) derived from the four LXXLL motifs of SRC1 were used in a GST pull down assay using GST-SRC1 (361-1441) and His-tagged cyclin D1 as described above. […] The reduction in binding was greater with 3 μg than with 0.3 μg of each of the LXXLL (SEQ ID NO:6) peptides with no reduction shown with the LXXAA (SEQ ID NO:21)mutant peptide. […] In another experiment, the ability of peptides to compete with cyclin D1 for binding to GST-SRC1 was investigated. Increasing amounts (100, 200 and 500 nM) of AASKHKQLSELLRSG (SEQ ID NO:1) (LXXLL (SEQ ID NO:6)) and AASKHKQLSEAARSG (SEQ ID NO:23) (LXXAA) (SEQ ID NO:21) peptides were used in a GST pull down assay using GST-SRC1 (361-1441) and His-tagged cycliin D1.
GST protein, GST-SRC1 fusion protein and His-tagged cyclin D1 protein were purified as described previously (Zwijsen et al., 1997). Binding between 500 ng GST-SRC1 and 100 ng His-D1 was performed in binding buffer (50 mM NaCl, 50 mM HEPES-KOH pH 7.6, […] 0.1% (w/v) NP40, 0.1 mM PMSF and 0.5% charcoal-stripped serum) bound to glutathione-sepharose for 1 hour at 4° C. The beads were washed three times and bound proteins were eluted by boiling for 10 minutes in sample buffer and separated on 10% SDS-PAGE. The binding of His-cyclin D1 to GST-SRC1 was detected by Western blot analysis using monoclonal antibodies directed against cyclin D1 (DCS-6, Neomarkers). For testing a ternary complex, a baculovirus-produced ER (750 ng, Pan Vera) was added to GST-SRC1 (500 ng) and His-D1 (100 ng) in the presence or absence of 1 μM 17β-estradiol using similar conditions as described above. In Western blot analysis monoclonal antibodies directed against cyclin D1 (DCS-6, Neomarkers) and ER (LH2, Novocastra) were used.
For the peptide inhibition assay using the peptides shown in FIG. 4(B), 150 ng GST/GST-SRC1 and 50 ng His-tagged cyclin D1 were used. […]

T1 sequence (P24385 whole entry): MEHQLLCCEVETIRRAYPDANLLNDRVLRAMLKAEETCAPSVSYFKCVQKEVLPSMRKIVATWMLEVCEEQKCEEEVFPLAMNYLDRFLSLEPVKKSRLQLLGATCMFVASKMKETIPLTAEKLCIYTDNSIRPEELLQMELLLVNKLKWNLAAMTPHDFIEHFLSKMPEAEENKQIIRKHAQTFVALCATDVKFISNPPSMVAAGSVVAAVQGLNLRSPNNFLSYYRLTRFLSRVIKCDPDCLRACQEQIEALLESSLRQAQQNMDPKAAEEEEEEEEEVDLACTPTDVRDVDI

Molecule | ER transactivation capacity (wild type ER) | also measured
D1: amino acids 1-247: carboxyl-terminal deletion mutant of cyclin D1 | lack ER transactivation capacity | 
D1: amino acids 91-295: amino-terminal deletion mutant of cyclin D1 | still able to activate ER | 
LXXAA mutant peptide: LXXAA mutant control peptide of the SRC-1 peptide competition experiment, FIG. 4B (PQAQQKSLQQAAT; listed as Homo sapiens) [reference compound] |  | interference with binding of cyclin D1 to SRC-1 [1]: no reduction
P3: peptide which corresponds to the third of the three centrally located LXXLL motifs of SRC-1 (KDHQLLRYLLDKDE; listed as Homo sapiens) |  | interference with binding of cyclin D1 to SRC-1 [1]: best competitor
D1: amino acids 1-267: cyclin D1 mutant lacking the extreme carboxyl-terminus | partially retained ER activation | 
AASKHKQLSELLRSG [LXXLL peptide derived from p300 amino acid 74-88] |  | competition with cyclin D1 for binding to GST-SRC1 ([1]; 100, 200 and 500 nM peptide): Binding was reduced with increasing concentration
B1 | lack ER transactivation capacity | 
B2 | behaved similar-to the D1 L254/255A mutant | 
B3 | behaved similar-to the D1 L254/255A mutant | 
